Data from paper PMC7954794, “Protein context shapes the specificity of SH3 domain-mediated interactions in vivo” (Nature Communications, 2021).

B1: YHR064C_1 (protein, UniProt P38788 1-538, looked up)
Ribosome-associated complex …: MSSPVIGITFGNTSSSIAYINPKNDVDVIANPDGERAIPSALSYVGEDEYHGGQALQQLIRNPKNTIINFRDFIGLPFDKCDVSKCANGAPAVEVDGKVGFVISRGEGKEEKLTVDEVVSRHLNRLKLAAEDYIGSAVKEAVLTVPTNFSEEQKTALKASAAKIGLQIVQFINEPSAALLAHAEQFPFEKDVNVVVADFGGIRSDAAVIAVRNGIFTILATAHDLSLGGDNLDTELVEYFASEFQKKYQANPRKNARSLAKLKANSSITKKTLSNATSATISIDSLADGFDYHASINRMRYELVANKVFAQFSSFVDSVIAKAELDPLDIDAVLLTGGVSFTPKLTTNLEYTLPESVEILGPQNKNASNNPNELAASGAALQARLISDYDADELAEALQPVIVNTPHLKKPIGLIGAKGEFHPVLLAETSFPVQKKLTLKQAKGDFLIGVYEGDHHIEEKTLEPIPKEENAEEDDESEWSDDEPEVVREKLYTLGTKLMELGIKNANGVEIIFNINKDGALRVTARDLKTGNAVKGEL
B2: YCR030C_1 (protein, UniProt P25623 1-870, looked up)
Suppressor of yeast profilin …: MTEQRTKYADSILTTKSPYEATETIRIRLSQVKLLNKDFYLLFKELANLKRNYAQQLRKIIAENEDITKILNAQMIESNVLTPQEMSAFRFNSLGELRNVWDTVIEELKSDLKSSTEYYNTLDQQVVRELKESVENNTSWRESKDLHSKLSKNAASIEHYSKNNENSSHLEEARRQWDQQSPYLFELFETIDYNRLDTLKNCMLRFQTSFSDYLLNTTKECETVMTKFLAFEPQSEIDRFAKDASQYNFQLSSSSKEVVPNNASPASATGARPVSVSNGAANTEREKKSPQKDKRKSAFGNIGHRLASASSSLTHNDLMNNEFSDSTNNSSLKSKKSSHTLRSKVGSIFGRNKTKNKRQQQSSSNSHIQASITETPNNSSTRVSSTATSSIYQKQRRPTYSSSKSNNWTPGEASDTPPLPPHATPKNVDAPVTADTPPAQTFTPSEVPPSTPQQSSPPTAKEPDSSNLPKTVPISISQPPLQPQSKTKPLPVEPASPSISLPTATVDNQPSGQVDSRPLHIRAPALPPSRKQNFIHNRDSQLYDSLPNHGSGATPTSSSLSSIPQERPVSTLSSQITGELRELNPQATGSSTSLVGQSLFQHSSLDTSQFGLNASIAEVLNASFKDGMLQNSQLIGEIALNYLPNSVMNSPLPIGINLRINNGAKFEKVILNQAFIERVAPEEFKVNPSFIDSRTLGAIKYSIKEPIAPIVIHPVWRFESHQASVVLTVKMSPSLPDEISQIVIEDLVVFVNIDGANATSALSKPQGSFSKEKKRITWRFKEPVVLTRNGEGQRLIARFITDGLAHESAKGVITKFTISETDNVALPHSGAGSGITLTCQELDENNPFGGEWLDVNTKRTLTTGNYHGLA
B3: YCR088W_1 (protein, UniProt P15891 2-592, looked up)
Actin-binding protein: ALEPIDYTTHSREIDAEYLKIVRGSDPDTTWLIISPNAKKEYEPESTGSSFHDFLQLFDETKVQYGLARVSPPGSDVEKIIIIGWCPDSAPLKTRASFAANFAAVANNLFKGYHVQVTARDEDDLDENELLMKISNAAGARYSIQTSSKQQGKASTPPVKKSFTPSKSPAPVSKKEPVKTPSPAPAAKISSRVNDNNDDDDWNEPELKERDFDQAPLKPNQSSYKPIGKIDLQKVIAEEKAKEDPRLVQKPTAAGSKIDPSSDIANLKNESKLKRDSEFNSFLGTTKPPSMTESSLKNDDDKVIKGFRNEKSPAQLWAERKAKQNSGNAETKAEAPKPEVPEDEPEGEPDVKDLKSKFEGLAASEKEEEEMENKFAPPPKKSEPTIISPKPFSKPQEPVKAEEAEQPKTDYKKIGNPLPGMHIEADNEEEPEENDDDWDDDEDEAAQPPLPSRNVASGAPVQKEEPEQEEIAPSLPSRNSIPAPKQEEAPEQAPEEEIEEEAEEAAPQLPSRSSAAPPPPPRRATPEKKPKENPWATAEYDYDAAEDNELTFVENDKIINIEFVDDDWWLGELEKDGSKGLFPSNYVSLGN
B4: YKL051W_1 (protein, UniProt P35735 1-353, looked up)
Protein SFK1: MIQFKSPGNWLFIVPWIAFIPWYGMLIAMLICWASQGHPIYWFMHSEQFPVYISDIGATNLRPLFISCAGWQGLGYVITVALEFFQRSGYLPFQLKKKDPSISDSTSYAEKLHSGKYLMPPYYTKDERNLIFAAFVLGSIGELALLFSSIFSTALYHRVHIAMVSVFVVFMFLSTCCLIAEYFLMGRHYASVHPLASPHFNPQSSEKSFNQDYNTVDELPWYKWKGHVWNKFTISATLKVIWLTLAVVWAICFGAINDRSKSACFEWLLAFWFGIIFMILSADFYLGGRYRQSRYFNHVESFSGYYKYDKALGLYHSEDVLPSDDNAGVIATETASSNIYNNSSSNESIQVVV
B5: YER008C_1 (protein, UniProt P33332 1-1336, looked up)
Exocyst complex component SEC3: MRSSKSPFKRKSHSRETSHDENTSFFHKRTISGSSAHHSRNVSQGAVPSSAPPVSGGNYSHKRNVSRASNSSQTSNFLAEQYERDRKAIINCCFSRPDHKTGEPPNNYITHVRIIEDSKFPSSRPPPDSKLENKKKRLLILSAKPNNAKLIQIHKARENSDGSFQIGRTWQLTELVRVEKDLEISEGFILTMSKKYYWETNSAKERTVFIKSLITLYIQTFEGHVPELVNWDLSLFYLDERSYQRAVITNRPGSVSPIKSPTSNFTTNTTQSVGSVPFSAPTERTRRSETESVNPVSTPASVEYHAGMKSLNKAPYSSNSTLNEVNKRYELEQQQQQEEAELRRLEEQKRLQLQKENEMKRLEEERRIKQEERKRQMELEHQRQLEEEERKRQMELEAKKQMELKRQRQFEEEQRLKKERELLEIQRKQREQETAERLKKEEQEALAKKEEEEKSKRNKVDNESYTQEINGKVDNLLEDLNAVLAEETETTPTMQNGTYVPERSTARAHDQLKKPLNIAKVESLGGSDLNDSISLSDEIAGLNTSNLSGEDQDEKNDLSFEKGDEVRYSNNFEGEAPHVYHEVSIIQEEAPAVSQKLILPEENNESEALIESKEEIKTMENIDDEVLLEILTDINWSIEDDADSMIERIDLRLAETEYLFNQNLLSLQKIGPNIRPYEDKVNDECHRIIPTLSLFLMEMSNFSNDIENVESQDNGLQVESANKKLLWNTLDELLKTVSLDEISLNQLLECPIREKNLPWMENQLNLLLKAFQAIGSDGNEVEYNLREISGLKQRLQFYEKVTKIFLNRIVEEMQKKFSNIRGQDISHDQMIRILTTLLIFSPLILFCKEISQKSYQAIVENWNVSIQPVYMELWTKKISQLQGIDTNDEKMNELSLSQLLNEWDTFRKERKTNDINPVFKNSFSLLTECLQTMRQECIVYQNFVEVFFHISSKHNFEEYIKHFNDPDAPPILLDTVKVMQSDREAAVIETQLVSRIFQPIVTRLSSYFVELVKAEPTVAPALTFYLENEIKSLESSNHEFLLSAVTRMYTQIKQVWSDNVEEQVLHFERISNATTNGEILPGILDLPVGLKNSEDLFQFAKRSMDIKDTDEGYESIELMNSSFRKLSIAATRSITHKEVNSSINPNLSDTAALNNDYMETISLLVNSNWLTEMLSMLNFNKDGIFDTSLQNVKKVFDVEKESYASFLLRDTMPKLTAFVYGVSNIIENTNNVNMTNPSRWAAYSRQNLENILLAYTSHEIETLVKRLHTHMVNDFGYHQENAINNVLCDKLWSCIQGQTVSLYLKLYTVIDKHYRGTNIRFTKNDIISAFEEYKNA

Tested on: PPIs identified as affected by the SH3 domain deletions
Test: Liquid DHFR-PCA low-throughput validation of PPIs affected by SH3 deletion (Fig. S1D-E)
Format: cell-based, Saccharomyces cerevisiae
Settings: label = prey, liquid DHFR-PCA, prey _1 = lost, _2 = gained in screen
Outline: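 Growth at 30 °C was tracked by OD each 15 min over 72 h in agar-free PCA selection medium, starting at 0.1 OD. Cells were diploids selected after mating, first cultured 48 h with NAT and HPH in synthetic complete MSG medium, pH 6.0.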

Row | Molecule | Ratio (Deletedscore / WTscore) (bait BEM1-1) | Ratio (Deletedscore / WTscore) (bait BUD14) | Ratio (Deletedscore / WTscore) (bait BEM1-2) | Ratio (Deletedscore / WTscore) (bait MYO3) | Ratio (Deletedscore / WTscore) (bait MYO5) | Ratio (Deletedscore / WTscore) (bait RVS167) | Ratio (Deletedscore / WTscore) (bait LSB3)
1 | B1 | 0.9929 | 0.7471 | – | – | – | – | –
2 | B2 | 1.033 | – | 0.5499 | 0.7978 | 0.5102 | 0.6932 | –
3 | B3 | 0.8735 | – | – | – | – | – | –
4 | B4 | 1.076 | – | 0.4799 | 0.5607 | 0.761 | – | –
5 | B5 | 0.9745 | – | 0.478 | – | – | 0.6394 | 0.7503
